Experimental data taken from patent publication US20220010008A1.
Values joined by “and” are separate entries in the source; they are usually repeats but may differ in a detail not shown here. Equal values may be shown once.

Legend:
[1] = target: recombinant human IL-5 protein (human) (UniProt P05113); test: FACS blocking: biotin-IL-5 bound to CHOK1 IL-5Ra/CSF2RB cells, Ab 6.6667 nM
[2] = target: recombinant human IL-5 protein (human) (UniProt P05113); test: ELISA, biotin-human IL-5 on streptavidin plate, Ab 0.0009 nM
[3] = target: recombinant human IL-5 protein (human) (UniProt P05113); test: FACS blocking: biotin-IL-5 bound to CHOK1 IL-5Ra/CSF2RB cells, Ab 0.0533 nM
[4] = target: recombinant human IL-5 protein (human) (UniProt P05113); test: FACS blocking: biotin-IL-5 bound to CHOK1 IL-5Ra/CSF2RB cells, Ab 0.0107 nM
[5] = target: recombinant human IL-5 protein (human) (UniProt P05113); test: ELISA, biotin-human IL-5 on streptavidin plate, Ab 2.6667 nM
[6] = target: recombinant human IL-5 protein (human) (UniProt P05113); test: FACS blocking: biotin-IL-5 bound to CHOK1 IL-5Ra/CSF2RB cells, Ab 1.3333 nM
[7] = target: recombinant human IL-5 protein (human) (UniProt P05113); test: FACS blocking: biotin-IL-5 bound to CHOK1 IL-5Ra/CSF2RB cells, Ab 0.2667 nM
[8] = target: recombinant human IL-5 protein (human) (UniProt P05113); test: FACS blocking: biotin-IL-5 bound to CHOK1 IL-5Ra/CSF2RB cells, Ab 0.0021 nM
[9] = target: recombinant human IL-5 protein (human) (UniProt P05113); test: cell-based or functional assay
[10] = target: recombinant human IL-5 protein (human) (UniProt P05113); test: ELISA, biotin-human IL-5 on streptavidin plate, Ab 0.0043 nM
[11] = target: recombinant human IL-5 protein (human) (UniProt P05113); test: ELISA, biotin-human IL-5 on streptavidin plate, Ab 0.5333 nM
[12] = target: recombinant human IL-5 protein (human) (UniProt P05113); test: FACS blocking: biotin-IL-5 bound to CHOK1 IL-5Ra/CSF2RB cells, Ab 33.3333 nM
[13] = target: recombinant human IL-5 protein (human) (UniProt P05113); test: SPR, human IL-5 immobilized on CM5 chip, chimeric antibody as analyte, 1:1 global fit
[14] = target: recombinant human IL-5 protein (human) (UniProt P05113); test: ELISA, biotin-human IL-5 on streptavidin plate, Ab 0.1067 nM
[15] = target: recombinant human IL-5 protein (human) (UniProt P05113); test: FACS blocking: biotin-IL-5 bound to CHOK1 IL-5Ra/CSF2RB cells, Ab 0.0004 nM
[16] = target: recombinant human IL-5 protein (human) (UniProt P05113); test: ELISA, biotin-human IL-5 on streptavidin plate, Ab 0.0213 nM
[17] = target: recombinant human IL-5 protein (human) (UniProt P05113); test: ELISA, biotin-human IL-5 on streptavidin plate, Ab 13.3333 nM
[18] = target: recombinant human IL-5 protein (human) (UniProt P05113); test: ELISA, biotin-human IL-5 on streptavidin plate, Ab 0.0002 nM
[19] = target: recombinant human IL-5 protein with His tag (human) (UniProt P05113); test: ELISA, biotin-human IL-5 on streptavidin; antibody 0.0213 nM
[20] = target: recombinant human IL-5 protein with His tag (human) (UniProt P05113); test: ELISA, biotin-human IL-5 on streptavidin; antibody 0.0002 nM
[21] = target: recombinant human IL-5 protein with His tag (human) (UniProt P05113); test: ELISA, biotin-human IL-5 on streptavidin; antibody 0.1067 nM
[22] = target: recombinant human IL-5 protein with His tag (human) (UniProt P05113); test: ELISA, biotin-human IL-5 on streptavidin; antibody 2.6667 nM
[23] = target: recombinant human IL-5 protein with His tag (human) (UniProt P05113); test: ELISA, biotin-human IL-5 on streptavidin; antibody 0.0009 nM
[24] = target: recombinant human IL-5 protein with His tag (human) (UniProt P05113); test: ELISA, biotin-human IL-5 on streptavidin; antibody 0.5333 nM
[25] = target: recombinant human IL-5 protein with His tag (human) (UniProt P05113); test: ELISA, biotin-human IL-5 on streptavidin; antibody 0.0043 nM
[26] = target: recombinant human IL-5 protein with His tag (human) (UniProt P05113); test: ELISA, biotin-human IL-5 on streptavidin; antibody 13.3333 nM

B1: 154F10G8 mouse-human chimeric antibody (antibody, human IgG4, V domains shown)
VH: QVQLQQPGAELVKPGASVKLSCKASGYTFTSYWITWVKQRPGQGLEWIGDIYPGSGSTFYNEKFKSEATLTVDTSSSTAYMQLSSLTSEDSAVFYCSTETTLGYWGQGTTLTVSS
VL: DVLMTQTPLSLPVSLGDQASISCRSSQSIVHNNGNTYLEWYLQKPGQSPKLLIYKVSNRFSGVPDRFSGSGSGTDFTLKISRVEAEDLGVYYCFQGSHVPFTFGSGTKLEIK
B1 was tested, and the Fluorescence intensity [1] was 39 MFI, the OD450 nm [2] was 0.081 OD450 nm and 0.087 OD450 nm and the Fluorescence intensity [3] was 87 MFI. The Fluorescence intensity [4] was 88 MFI, the OD450 nm [5] was 2.96 OD450 nm and 3.01 OD450 nm and the Fluorescence intensity [6] was 46 MFI. The Fluorescence intensity [7] was 67 MFI, the Fluorescence intensity [8] was 88 MFI and the RLU, CTLL-2 proliferation with IL-5, Ab 0.000170667 nM [9] was 59900 RLU and 54900 RLU. The RLU, CTLL-2 proliferation with IL-5, Ab 0.000853333 nM [9] was 59800 RLU and 56700 RLU, the RLU, CTLL-2 proliferation with IL-5, Ab 0.004266667 nM [9] was 64400 RLU and 61300 RLU and the RLU, CTLL-2 proliferation with IL-5, Ab 0.02133333 nM [9] was 62100 RLU and 59300 RLU. For the same binder, the RLU, CTLL-2 proliferation with IL-5, Ab 0.1066667 nM [9] was 54800 RLU and 52000 RLU, the RLU, CTLL-2 proliferation with IL-5, Ab 0.5333334 nM [9] was 44900 RLU and 38200 RLU and the RLU, CTLL-2 proliferation with IL-5, Ab 2.666667 nM [9] was 28000 RLU and 25400 RLU. The RLU, CTLL-2 proliferation with IL-5, Ab 13.33333 nM [9] was 16200 RLU and 17000 RLU, the RLU, CTLL-2 proliferation with IL-5, Ab 66.66666 nM [9] was 12200 RLU and 12400 RLU and the RLU, CTLL-2 proliferation with IL-5, Ab 3.41333E-05 nM [9] was 60700 RLU and 50200 RLU. The RLU, TF-1 proliferation with IL-5, Ab 0.00001 nM [9] was 110000 RLU and 113000 RLU, the RLU, TF-1 proliferation with IL-5, Ab 0.00003 nM [9] was 111000 RLU and 109000 RLU and the RLU, TF-1 proliferation with IL-5, Ab 0.00017 nM [9] was 111000 RLU. For the same binder, the RLU, TF-1 proliferation with IL-5, Ab 0.00085 nM [9] was 109000 RLU and 108000 RLU, the RLU, TF-1 proliferation with IL-5, Ab 0.00427 nM [9] was 109000 RLU and 114000 RLU and the RLU, TF-1 proliferation with IL-5, Ab 0.02133 nM [9] was 99100 RLU and 101000 RLU. For the same binder, the RLU, TF-1 proliferation with IL-5, Ab 0.10667 nM [9] was 81400 RLU and 82800 RLU, the RLU, TF-1 proliferation with IL-5, Ab 0.53333 nM [9] was 60400 RLU and 56800 RLU and the RLU, TF-1 proliferation with IL-5, Ab 2.66667 nM [9] was 45200 RLU and 42600 RLU. The RLU, TF-1 proliferation with IL-5, Ab 13.33333 nM [9] was 38500 RLU and 40000 RLU, the OD450 nm [10] was 0.108 OD450 nm and 0.106 OD450 nm and the OD450 nm [11] was 1.93 OD450 nm and 2 OD450 nm. It also gave a Fluorescence intensity [12] of 35 MFI, a Kd [13] of 0.188 nM and a koff [13] of 5.24e-05 s⁻¹. For the same binder, the kon [13] was 279000 M⁻¹ s⁻¹, the OD450 nm [14] was 0.716 OD450 nm and 0.77 OD450 nm and the Fluorescence intensity [15] was 91 MFI. For the same binder, the OD450 nm [16] was 0.224 OD450 nm and 0.221 OD450 nm, the OD450 nm [17] was 3.7 OD450 nm and 3.71 OD450 nm and the OD450 nm [18] was 0.083 OD450 nm and 0.098 OD450 nm.

B2: 154F10G8 (murine hybridoma antibody) (antibody, V domains shown)
VH: QVQLQQPGAELVKPGASVKLSCKASGYTFTSYWITWVKQRPGQGLEWIGDIYPGSGSTFYNEKFKSEATLTVDTSSSTAYMQLSSLTSEDSAVFYCSTETTLGYWGQGTTLTVSS
VL: DVLMTQTPLSLPVSLGDQASISCRSSQSIVHNNGNTYLEWYLQKPGQSPKLLIYKVSNRFSGVPDRFSGSGSGTDFTLKISRVEAEDLGVYYCFQGSHVPFTFGSGTKLEIK
With B2 the OD450 nm [19] was 0.595 and 0.64, the OD450 nm [20] was 0.079 and 0.07 and the OD450 nm [21] was 1.69 and 1.71. For the same binder, the OD450 nm [22] was 3.23 and 3.17, the OD450 nm [23] was 0.093 and 0.092 and the OD450 nm [24] was 2.76 and 2.69. For the same binder, the OD450 nm [25] was 0.205 and 0.193 and the OD450 nm [26] was 3.3 and 3.49.
